T1: cynomolgus monkey Factor Bb (cynomolgus monkey)
T1 chain: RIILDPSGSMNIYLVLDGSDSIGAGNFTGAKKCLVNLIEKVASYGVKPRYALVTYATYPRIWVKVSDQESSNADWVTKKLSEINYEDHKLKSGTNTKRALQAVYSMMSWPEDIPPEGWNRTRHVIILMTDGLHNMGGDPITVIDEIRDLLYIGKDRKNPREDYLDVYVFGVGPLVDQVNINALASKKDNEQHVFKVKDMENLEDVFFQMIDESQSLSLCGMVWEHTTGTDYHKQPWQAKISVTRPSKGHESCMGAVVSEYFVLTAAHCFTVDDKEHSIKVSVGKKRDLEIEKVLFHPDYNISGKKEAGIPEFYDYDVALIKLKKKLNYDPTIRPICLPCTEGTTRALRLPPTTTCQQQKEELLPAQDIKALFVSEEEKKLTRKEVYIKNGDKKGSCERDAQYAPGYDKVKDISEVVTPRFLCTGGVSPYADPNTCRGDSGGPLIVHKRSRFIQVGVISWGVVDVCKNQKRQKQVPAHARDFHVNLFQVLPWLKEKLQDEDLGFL

B1: anti-factor Bb monoclonal antibody M10 (antibody, V domains shown)
VH: EVQLVESGGALVKPGGSLKLSCAASGFTFSNYAMSWVRQTPEKRLEWVATISNRGSYTYYPDSVKGRFTISRDNAKNTLYLQMSSLRSEDTALYYCARERPMDYWGQGTSVTVSS
VL: DIVMTQSHKFMSTSVGDRVSITCKASQDVGTAVAWYQQKPGQSPKLLIYWASTRHTGVPDRFTGSGSGTDFTLTITNVQSEDLAVYFCHQHSSNPLTFGAGTKLELK
notes: Mouse monoclonal purified from hybridoma supernatant
B2: anti-factor Bb monoclonal antibody M4 (antibody, V domains shown)
VH: EVQLQQSGPELVKPGASVKMSCKASGYSFTDYLMNWVKQSHGKSLEWIGRINPYNGDAFYNQRFKGKATLTVDKSSSTAHMELRSLTSEDSALYYCARLENDYGFTYWGQGTLVTVSA
VL: DIVMTQAAFSNPVTLGTSASISCSSSKSLLHSNGITYLYWYLQRPGQSPQLLIYRMSNLASGVPDRFSGSGSGTDFTLRISRVEAEDVGVYYCAQMLERPWTFGGGTKLEIK
notes: Mouse monoclonal purified from hybridoma supernatant; also called Factor B/Bb antibody M4
B3: anti-factor Bb monoclonal antibody M12 (antibody, V domains shown)
VH: B2 VH
VL: B2 VL
notes: as for B1
B4: anti-factor Bb monoclonal antibody M18 (antibody, V domains shown)
VH: B1 VH
VL: B1 VL
notes: as for B1
B5: anti-factor Bb monoclonal antibody M17 (antibody, V domains shown)
VH: EVQLVESGGVLVKPGGSLKLSCAASGFTFSNFAMSWVRQTPAKRLEWVATISNGGGYTYYPDSVQGRFTISRDNANNTLYLQMSSLRSEDTALYYCARIYYGSSYEDWFAYWGQGTLVTVSA
VL: DIVMTPSHKFMSTSVGDRVSITCKASQDVGSAVAWYQQKPGHSPKLLIFWASTRHTGVPDRFTGSGSGTDFTLTISNVQSEDLADYFCQQYSSYPYTFGGGTRLEIK
notes: as for B1

Assays:
purified human Factor Bb [1] = target: T2, purified human Factor Bb (human, UniProt P00751 260-764); assay: cell-based or functional assay
[2] = target: cynomolgus monkey Factor Bb (cynomolgus monkey); assay: cell-based or functional assay
purified human Factor Bb [3] = target: T2, purified human Factor Bb; assay: antigen-capture ELISA, ratio of absorbance with biotinylated Factor Bb to that with Factor B
Protocol: (§1) Preferential binding of factor Bb antibodies to activated factor B versus full length Factor B zymogen was determined in an optimized antigen-capture ELISA format to evaluate binding to target soluble proteins. 1 μg/mL of antibody was bound to goat anti-mouse IgG coated plates (Pierce; Thermo Scientific), followed by incubation with 1 μg/mL biotinylated factor Bb or factor B (Complement Technologies). Bound factor Bb/B proteins were detected with streptavidin-HRP and reacted with TMB 1-Step Ultra TMB-ELISA Substrate Solution (Thermo Scientific). Reactions were stopped with an equal volume of 1N sulfuric acid; and absorbance at OD₄₅₀ₙₘ was measured. The ratio of absorbance of binding by Factor Bb versus Factor B (fBb/B ratio) was calculated and the results are shown in FIG. 3.
Target sequence in this assay (P00751 260-764 limits assumed): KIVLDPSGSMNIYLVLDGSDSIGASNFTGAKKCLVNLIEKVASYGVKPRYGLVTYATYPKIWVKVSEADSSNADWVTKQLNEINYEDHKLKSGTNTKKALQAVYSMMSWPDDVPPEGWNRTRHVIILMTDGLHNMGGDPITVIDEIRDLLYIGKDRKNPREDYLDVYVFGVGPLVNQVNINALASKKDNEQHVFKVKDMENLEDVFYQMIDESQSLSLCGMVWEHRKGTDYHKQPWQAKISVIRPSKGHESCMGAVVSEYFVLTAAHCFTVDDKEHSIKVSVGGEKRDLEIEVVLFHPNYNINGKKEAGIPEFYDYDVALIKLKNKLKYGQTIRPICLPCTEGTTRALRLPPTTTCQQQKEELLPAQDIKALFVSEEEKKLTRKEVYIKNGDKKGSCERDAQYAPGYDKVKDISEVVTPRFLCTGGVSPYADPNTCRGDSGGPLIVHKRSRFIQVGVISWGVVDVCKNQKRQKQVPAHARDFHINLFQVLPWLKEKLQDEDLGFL

[4] = target: T3, cynomolgus monkey Factor Bb (cynomolgus monkey); assay: ELISA; cynomolgus Factor Bb coated at 5 µg/mL, mAb in 3-fold dilutions from 10 µg/mL; EC50 by Prism according to the text, headed 'Binding Affinity (M)' on the sheet
T3 construct: In the serum assays the target is the factor B/Bb of cynomolgus serum; also called cyno Factor Bb
Protocol: (§2) The relative EC₅₀ values for factor Bb mAbs were determined by ELISA. Unlabeled purified human Factor Bb (Complement Technologies; 1 μg/mL) was coated onto a high binding ELISA plate, and incubated with increasing amounts of purified mAbs (3-fold serial dilutions starting at 10 μg/mL). Horse radish peroxidase (HRP)-conjugated goat anti-mouse secondary antibody (Southern Biotech) was used for detection, and reacted with 3,3′,5,5′-Tetramethylbenzidine (TMB) 1-Step Ultra TMB-ELISA Substrate Solution (Thermo Scientific). Reactions were stopped with an equal volume of 1N sulfuric acid; and absorbance at OD₄₅₀ₙₘ was measured.
(§3) Factor Bb mAbs were assayed for their ability to bind to cynomolgus monkey Factor B or Factor Bb by ELISA. 5 μg/mL of each purified protein (Innovative Research; purified in-house) was coated onto ELISA plates, incubated with purified factor Bb mAbs (3-fold serial dilutions starting at 10 μg/mL), and bound antibody was detected as in Example 2.

purified human Factor Bb [5] = target: T2, purified human Factor Bb; assay: antigen-capture ELISA; mAb at 1 µg/mL on goat anti-mouse IgG plates, 1 µg/mL biotinylated Factor Bb or Factor B, streptavidin-HRP; OD450 with Factor Bb divided by OD450 with Factor B; the text rounds this to 5.5
Protocol: as §1

purified human Factor Bb [6] = target: T2, purified human Factor Bb; assay: ELISA on coated human Factor Bb; EC50 calculated with PRISM from the curves of FIG. 1
Protocol: as §2
Target sequence in this assay (P00751 260-764 limits assumed): as above

purified human Factor Bb [7] = target: T2, purified human Factor Bb; assay: ELISA; human Factor Bb coated at 1 µg/mL, mAb in 3-fold dilutions from 10 µg/mL, HRP goat anti-mouse, OD450
Protocol: as §2
Target sequence in this assay (P00751 260-764 limits assumed): as above

purified human Factor Bb [8] = target: T2, purified human Factor Bb; assay: antigen-capture ELISA; mAb at 1 µg/mL on goat anti-mouse IgG plates, 1 µg/mL biotinylated Factor Bb or Factor B, streptavidin-HRP; OD450 with Factor Bb divided by OD450 with Factor B
Protocol: as §1

[9] = target: T1, cynomolgus monkey Factor Bb; assay: ELISA; cynomolgus Factor Bb coated at 5 µg/mL, mAb in 3-fold dilutions from 10 µg/mL; EC50 by Prism according to the text, headed 'Binding Affinity (M)' on the sheet
Protocol: as §2, §3

full-length Factor B = target: T4, full-length Factor B (UniProt P00751 26-764); assay: antigen-capture ELISA, antibody on goat anti-mouse IgG plate
T4 construct: Biotinylated in the antigen-capture ELISA, unlabeled in SEC; also called Factor B zymogen; FB
Protocol: as §1

Binder	IC50, Wieslab AP activity, 5.5% normal human serum (purified human Factor Bb [1])	IC50, Wieslab AP activity, 5.5% cynomolgus monkey serum [2]	IC50, hemolysis of rabbit RBCs by 5% cynomolgus monkey serum [2]	fBb/B ratio (purified human Factor Bb [3])	EC50 [4]	Ratio OD fBb/fB (ELISA) (purified human Factor Bb [5])	EC50 (purified human Factor Bb [6])	EC50 (read off the curve) (purified human Factor Bb [7])	Ratio OD fBb/fB (ELISA) (purified human Factor Bb [8])	EC50 [9]	binding result (full-length Factor B)
B1	97.9 nM	367 nM	220 nM	5.5	0.488 nM	5.49	0.335 nM	~0.3 nM			
B2			25 nM	≥ 1			0.874 nM	~0.8 nM	0.59		
B3			28.2 nM	≥ 1	2.55 nM		0.761 nM	~0.7 nM	0.82		
B4			232 nM	8.4	0.449 nM		0.336 nM	~0.3 nM			
B5							3.14 nM		70.7	~2.64 nM	no binding (tested: 1 µg/mL biotinylated factor B)

Source: patent US20240228599A1 (Sanofi, published 2024)
